Assay results published in US20090317825.

Target: human GST-E1 (Boston Biochem) (UniProt P22314)
Sequence (P22314 whole entry): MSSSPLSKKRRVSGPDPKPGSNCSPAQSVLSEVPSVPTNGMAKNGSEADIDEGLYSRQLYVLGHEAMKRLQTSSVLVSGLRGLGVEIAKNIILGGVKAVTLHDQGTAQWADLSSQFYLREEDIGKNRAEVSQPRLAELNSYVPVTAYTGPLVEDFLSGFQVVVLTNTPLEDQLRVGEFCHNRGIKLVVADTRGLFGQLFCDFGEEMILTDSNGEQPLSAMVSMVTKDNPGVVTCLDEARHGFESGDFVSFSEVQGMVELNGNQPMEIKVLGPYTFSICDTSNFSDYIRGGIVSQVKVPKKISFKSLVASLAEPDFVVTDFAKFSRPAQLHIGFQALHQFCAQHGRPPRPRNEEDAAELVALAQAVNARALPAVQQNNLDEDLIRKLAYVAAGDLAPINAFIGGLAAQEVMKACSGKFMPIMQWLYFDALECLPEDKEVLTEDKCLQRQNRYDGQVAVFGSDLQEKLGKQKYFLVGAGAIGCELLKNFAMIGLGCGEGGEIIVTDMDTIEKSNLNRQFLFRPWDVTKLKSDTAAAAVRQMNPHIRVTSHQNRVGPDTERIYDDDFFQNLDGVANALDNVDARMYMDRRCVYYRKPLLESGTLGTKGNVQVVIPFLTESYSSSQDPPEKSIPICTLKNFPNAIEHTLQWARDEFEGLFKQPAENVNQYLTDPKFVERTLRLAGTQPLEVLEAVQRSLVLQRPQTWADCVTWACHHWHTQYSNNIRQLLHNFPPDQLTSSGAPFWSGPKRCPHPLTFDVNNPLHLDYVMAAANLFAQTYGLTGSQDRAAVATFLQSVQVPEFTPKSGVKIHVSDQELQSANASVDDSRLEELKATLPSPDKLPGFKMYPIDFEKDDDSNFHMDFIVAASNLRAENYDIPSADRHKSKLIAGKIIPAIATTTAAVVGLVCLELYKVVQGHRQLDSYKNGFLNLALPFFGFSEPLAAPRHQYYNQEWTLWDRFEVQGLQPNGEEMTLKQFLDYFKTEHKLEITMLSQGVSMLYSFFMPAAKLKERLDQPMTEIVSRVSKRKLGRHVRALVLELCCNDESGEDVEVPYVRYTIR

Question: Which “ubiquitination of Parkin in the absence of UbCH7 (biotin-ubiquitin Western blot, NeutrAvidin-HRP)” value does the source give for “His6-Parkin (full-length human Parkin fused to an N-terminal histidine tag, from E. coli, refolded)” here?
Answer: some reaction product was seen in the absence of UbCH7 when Parkin was incubated with E1 and ubiquitin for 90 minutes
